Test system: mutant form of α-Gal A expressed in HEK-293 cells
Test: HEK assay (GLP HEK / Migalastat Amenability Assay): α-Gal A activity in lysates of transiently transfected HEK-293 cells incubated with or without 10 μM migalastat
Format: cell-based, human
Conditions: for Absolute increase (% WT) / Relative increase: 10 μM migalastat versus baseline; for Baseline α-Gal A activity (% WT): absence of migalastat; for Baseline α-Gal A activity (% WT) / 10 μM migalastat α-Gal A activity (% WT): percentage of baseline wild-type α-Gal A activity; for Baseline α-Gal A activity (% WT) / Baseline α-Gal A activity / 10 μM migalastat α-Gal A activity / 10 μM migalastat α-Gal A activity (% WT): mean ± SEM; for Baseline α-Gal A activity / 10 μM migalastat α-Gal A activity: lysates of HEK-293 cells transiently transfected with the mutant form; for Baseline α-Gal A activity: incubated 5 days in absence of migalastat; for 10 μM migalastat α-Gal A activity: incubated 5 days with 10 μM migalastat; for 10 μM migalastat α-Gal A activity (% WT): with 10 μM migalastat, 5 days
Procedure, shortened: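 HEK-293 cells transiently transfected with mutant α-Gal A and incubated with or without 10 μM migalastat; lysate activity given as nmol free 4-MU released per mg protein per hour. Values are mean±SEM.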

Molecule	Absolute increase (% WT)	Relative increase	Baseline α-Gal A activity (% WT)	Baseline α-Gal A activity	10 μM migalastat α-Gal A activity	10 μM migalastat α-Gal A activity (% WT)
T366S (protein) MQLRNPELHLGCALALRFLALVSWDIPGARALDNGLARTPTMGWLHWERFMCNLDCQEEPDSCISEKLFMEMAELMVSEGWKDAGYEYLCIDDCWMAPQRDSEGRLQADPQRFPHGIRQLANYVHSKGLKLGIYADVGNKTCAGFPGSFGYYDIDAQTFADWGVDLLKFDGCYCDSLENLADGYKHMSLALNRTGRSIVYSCEWPLYMWPFQKPNYTEIRQYCNHWRNFADIDDSWKSIKSILDWTSFNQERIVDVAGPGGWNDPDMLVIGNFGLSWNQQVTQMALWAIMAAPLFMSNDLRHISPQAKALLQDKDVIAINQDPLGKQGYQLRQGDNFEVWERPLSGLAWAVAMINRQEIGGPRSYSIAVASLGKGVACNPACFITQLLPVKRKLGFYEWTSRLRSHINPTGTVLLQLENTMQMSLKDLL	16.2 % WT	1.2	70.6 ± 4.9 % WT	20731 ± 2170 nmol/mg/h	24885 ± 1760 nmol/mg/h	86.7 ± 3.6 % WT
I367M (protein) MQLRNPELHLGCALALRFLALVSWDIPGARALDNGLARTPTMGWLHWERFMCNLDCQEEPDSCISEKLFMEMAELMVSEGWKDAGYEYLCIDDCWMAPQRDSEGRLQADPQRFPHGIRQLANYVHSKGLKLGIYADVGNKTCAGFPGSFGYYDIDAQTFADWGVDLLKFDGCYCDSLENLADGYKHMSLALNRTGRSIVYSCEWPLYMWPFQKPNYTEIRQYCNHWRNFADIDDSWKSIKSILDWTSFNQERIVDVAGPGGWNDPDMLVIGNFGLSWNQQVTQMALWAIMAAPLFMSNDLRHISPQAKALLQDKDVIAINQDPLGKQGYQLRQGDNFEVWERPLSGLAWAVAMINRQEIGGPRSYTMAVASLGKGVACNPACFITQLLPVKRKLGFYEWTSRLRSHINPTGTVLLQLENTMQMSLKDLL	22.3 % WT	1.3	76.7 ± 3.9 % WT	28430 ± 1769 nmol/mg/h	36008 ± 2249 nmol/mg/h	99 ± 6.7 % WT
I367L (protein) MQLRNPELHLGCALALRFLALVSWDIPGARALDNGLARTPTMGWLHWERFMCNLDCQEEPDSCISEKLFMEMAELMVSEGWKDAGYEYLCIDDCWMAPQRDSEGRLQADPQRFPHGIRQLANYVHSKGLKLGIYADVGNKTCAGFPGSFGYYDIDAQTFADWGVDLLKFDGCYCDSLENLADGYKHMSLALNRTGRSIVYSCEWPLYMWPFQKPNYTEIRQYCNHWRNFADIDDSWKSIKSILDWTSFNQERIVDVAGPGGWNDPDMLVIGNFGLSWNQQVTQMALWAIMAAPLFMSNDLRHISPQAKALLQDKDVIAINQDPLGKQGYQLRQGDNFEVWERPLSGLAWAVAMINRQEIGGPRSYTLAVASLGKGVACNPACFITQLLPVKRKLGFYEWTSRLRSHINPTGTVLLQLENTMQMSLKDLL	21.9 % WT	1.2	79 ± 4 % WT	25211 ± 1640 nmol/mg/h	31257 ± 2256 nmol/mg/h	101 ± 9.3 % WT
I367F (protein) MQLRNPELHLGCALALRFLALVSWDIPGARALDNGLARTPTMGWLHWERFMCNLDCQEEPDSCISEKLFMEMAELMVSEGWKDAGYEYLCIDDCWMAPQRDSEGRLQADPQRFPHGIRQLANYVHSKGLKLGIYADVGNKTCAGFPGSFGYYDIDAQTFADWGVDLLKFDGCYCDSLENLADGYKHMSLALNRTGRSIVYSCEWPLYMWPFQKPNYTEIRQYCNHWRNFADIDDSWKSIKSILDWTSFNQERIVDVAGPGGWNDPDMLVIGNFGLSWNQQVTQMALWAIMAAPLFMSNDLRHISPQAKALLQDKDVIAINQDPLGKQGYQLRQGDNFEVWERPLSGLAWAVAMINRQEIGGPRSYTFAVASLGKGVACNPACFITQLLPVKRKLGFYEWTSRLRSHINPTGTVLLQLENTMQMSLKDLL	21.6 % WT	1.4	48.3 ± 3.7 % WT	15728 ± 1680 nmol/mg/h	22178 ± 1794 nmol/mg/h	69.9 ± 5.7 % WT
A368P (protein) MQLRNPELHLGCALALRFLALVSWDIPGARALDNGLARTPTMGWLHWERFMCNLDCQEEPDSCISEKLFMEMAELMVSEGWKDAGYEYLCIDDCWMAPQRDSEGRLQADPQRFPHGIRQLANYVHSKGLKLGIYADVGNKTCAGFPGSFGYYDIDAQTFADWGVDLLKFDGCYCDSLENLADGYKHMSLALNRTGRSIVYSCEWPLYMWPFQKPNYTEIRQYCNHWRNFADIDDSWKSIKSILDWTSFNQERIVDVAGPGGWNDPDMLVIGNFGLSWNQQVTQMALWAIMAAPLFMSNDLRHISPQAKALLQDKDVIAINQDPLGKQGYQLRQGDNFEVWERPLSGLAWAVAMINRQEIGGPRSYTIPVASLGKGVACNPACFITQLLPVKRKLGFYEWTSRLRSHINPTGTVLLQLENTMQMSLKDLL	25.7 % WT	1.3	91.7 ± 4.6 % WT	26402 ± 926 nmol/mg/h	33525 ± 1803 nmol/mg/h	117.4 ± 8.7 % WT
V369A (protein) MQLRNPELHLGCALALRFLALVSWDIPGARALDNGLARTPTMGWLHWERFMCNLDCQEEPDSCISEKLFMEMAELMVSEGWKDAGYEYLCIDDCWMAPQRDSEGRLQADPQRFPHGIRQLANYVHSKGLKLGIYADVGNKTCAGFPGSFGYYDIDAQTFADWGVDLLKFDGCYCDSLENLADGYKHMSLALNRTGRSIVYSCEWPLYMWPFQKPNYTEIRQYCNHWRNFADIDDSWKSIKSILDWTSFNQERIVDVAGPGGWNDPDMLVIGNFGLSWNQQVTQMALWAIMAAPLFMSNDLRHISPQAKALLQDKDVIAINQDPLGKQGYQLRQGDNFEVWERPLSGLAWAVAMINRQEIGGPRSYTIAAASLGKGVACNPACFITQLLPVKRKLGFYEWTSRLRSHINPTGTVLLQLENTMQMSLKDLL	38.6 % WT	1.5	77.6 ± 5 % WT	23968 ± 1797 nmol/mg/h	35925 ± 2462 nmol/mg/h	116.2 ± 6.3 % WT
A368G (protein) MQLRNPELHLGCALALRFLALVSWDIPGARALDNGLARTPTMGWLHWERFMCNLDCQEEPDSCISEKLFMEMAELMVSEGWKDAGYEYLCIDDCWMAPQRDSEGRLQADPQRFPHGIRQLANYVHSKGLKLGIYADVGNKTCAGFPGSFGYYDIDAQTFADWGVDLLKFDGCYCDSLENLADGYKHMSLALNRTGRSIVYSCEWPLYMWPFQKPNYTEIRQYCNHWRNFADIDDSWKSIKSILDWTSFNQERIVDVAGPGGWNDPDMLVIGNFGLSWNQQVTQMALWAIMAAPLFMSNDLRHISPQAKALLQDKDVIAINQDPLGKQGYQLRQGDNFEVWERPLSGLAWAVAMINRQEIGGPRSYTIGVASLGKGVACNPACFITQLLPVKRKLGFYEWTSRLRSHINPTGTVLLQLENTMQMSLKDLL	30.9 % WT	1.3	83.9 ± 4.7 % WT	31616 ± 2552 nmol/mg/h	42198 ± 2923 nmol/mg/h	114.8 ± 7.8 % WT

Reference: patent US11833164B2, “Methods of treating Fabry disease in patients having a mutation in the GLA gene” (Amicus Therapeutics, Inc., priority 2019, dated 2023)
